Tests used:
[1] = Brain delivery of peptide-antibody complex in normal animals (IVIS organ fluorescence, Optix MX3 3D brain image); type: in vivo, hairless mouse (SKH-1); settings: Cy5.5 labeled, intravenous 4 mg/kg; for fluorescence in the brain (IVIS): FIG. 4(a); for extent of penetration into the brain (three-dimensional image): Optix MX3, FIG. 4(b)
Description: Cy5.5 labeled SEQ ID NO: 17 peptide for penetrating the blood-brain barrier, Cy5.5 labeled SEQ ID NO: 59 antibody, and the complex of Cy5.5-labeled SEQ ID NO: 17 peptide for penetrating the blood-brain barrier and SEQ ID NO: 59 antibody were injected intravenously at 4 mg/kg each to hairless mouse (SKH-1, female, 6 weeks old, OrientBio), and fluorescence in each organ (brain, liver, lung, spleen, kidney, heart) was measured at excitation: 685 nm and emission: 706 nm using IVIS (Perkin Elmer). In addition, three-dimensional images of the brain alone were measured using Optix MX3 (ART Advanced Research Technologies Inc.).

[2] = Concentration in blood and brain tissue of peptide-antibody complex in normal animals (IVIS); type: in vivo, hairless mouse (SKH-1)
Description: The control cell permeability peptide (TAT) and antibody of SEQ ID NO: 59 were prepared in the same manner as the expression method in Example 2 and labeled with cy5.5. The complex of the peptide for penetrating the blood-brain barrier of SEQ ID NO: 41 in which CGGGG was introduced in N term and the antibody of SEQ ID NO: 59 prepared in Example 2 was labeled labeled with Cy5.5. The antibody of SEQ ID NO: 59 was labeled with Cy5.5 and injected intravenously into hairless mouse (SKH-1, female, 6 weeks old, OrientBio) at 10 mg/kg each. Concentrations in brain and blood were measured at excitation: 685 nm and emission: 706 nm using IVIS (Perkin Elmer) until day 24, and the results are shown in FIG. 5.

U87MG-Luc 2 glioblastoma = assay: Brain tumor animal model, bioluminescence and distribution at tumor site; type: in vivo, mouse; settings: for bioluminescence of U87MG-Luc brain tumor cells: 1 mg/kg intravenous every 3 days, 4 doses, observed 16 days
Description: Using a brain tumor animal model, the ability of the complex of the peptide for penetrating the blood-brain barrier and antibody to penetrate the brain, inhibit brain tumors, and be distributed in the brain parenchyma was measured. Specifically, U87MG-Luc 2 (ATCC, HTB-14-LUC2™) cells, a luciferase-expressing U87MG glioblastoma, were cultured in DMEM medium supplemented with 10% FBS and 1% antibiotics. Nude 5- to 7-week-old mouse (Orient Bio) was anesthetized with isoflurane and immobilized using ear bars inside a stereotaxic instrument. After incising the scalp at the surgical site, a hole was made using a sterile drill 2 mm to the right to and 2 mm under the bregma. Then, 1.0×10^5/10 μL U87MG-Luc-2 cells were injected through the above hole with a 26G Hamilton syringe (1 μl/min), and after injection, the hole was closed with bone wax and sutured to close the scalp. The proliferation of transplanted glioblastoma was obtained by injecting D-luciferin potassium (15 mg/mL dissolved in PBS, sigma), a substrate of luciferase, at 150 mg/kg, to a mouse, and sacrificing it after 10 min, and measuring the bioluminescence using IVIS (Perkin Elmer), and the results are shown in FIG. 6.
Starting 4 days after glioblastoma transplantation, 1 mg/kg of the complex of CGGGG-SEQ ID NO: 41 peptide for penetrating the blood-brain barrier and SEQ ID NO: 59 antibody and 1 mg/kg SEQ ID NO: 59 antibody were injected intravenously. The administration interval between doses was every 3 days for a total of 4 doses for 16 days. […] FIG. 6 (a) is the photo of an IVIS observation of bioluminescence of U87MG-Luc cells on day 16. […] After 16 days of bioluminescence observation, the bioluminescence continued to increase in the glioblastoma transplanted and untreated group.
The complex of a peptide for penetrating the blood-brain barrier of CGGGG-SEQ ID NO: 41 labeled with cy5.5 and a SEQ ID NO: 59 antibody was administered to the same animal model 8 hours before sacrifice, and the brain was harvested. After frozen sectioning, the distribution of fluorescence was observed by confocal microscopy.

[3] = Cy5.5 labeled, intravenous 10 mg/kg

Q: For VSRRRRRRRGGRRRRR-VPALR [SEQ ID NO: 17], which “fluorescence in the brain (IVIS)” value [1] is on record?
A: fluorescence could be observed in the brain

Q: And the “extent of penetration into the brain (three-dimensional image)” value [1]?
A: the extent of penetration into the brain was large

B1: complex of Cy5.5-labeled SEQ ID NO: 17 peptide for penetrating the blood-brain barrier and SEQ ID NO: 59 antibody: complex of SEQ ID NO: 17 blood-brain barrier penetrating peptide and SEQ ID NO: 59 … (conjugate)
chain 1: VSRRRRRRGGRRRRVPALR
chain 2: MAWVWTLLFLMAAAQSIQAEWIKQRPGQGLEWIGVIHPGNGGTNYNENFKGKATLTADKSSSTAYMQLSSLTSDDSAVYFCASGNDGSYWGQGTTVTVSSGGGGSGKGGSGGGGSGGGGSDIELTQSPSSLTVTAGEKVTMSCKSSQSLLNSGDQKIYLTWYQQKPGQPPKLLIYWASTRESGVPDRFTGSVSGTDFTLTISSVQAEDLAVYYCQNDYNYPYTFGGGTKCLEIKRGSENLYFQGGSGKPIPNPLLGLDSTGGSGGSHHHHHH
modifications: Cy5.5 label; conjugated complex
Q: With B1 as the molecule, how does the “fluorescence in the brain (IVIS)” value [1] read?
A: fluorescence could be observed in the brain

Q: What about the “extent of penetration into the brain (three-dimensional image)” value [1] of the same molecule?
A: the extent of penetration into the brain was large

B2: SEQ ID NO: 59 antibody: antibody represented by amino acid sequence of SEQ ID NO: 59, has therapeutic efficacy in glioblastoma (protein)
chain: B1 chain 2
Q: What does the source list for B2?
A: fluorescence in the brain (IVIS) [1]: fluorescence was not observed in the brain; extent of penetration into the brain (three-dimensional image) [1]: observed to a lesser extent inside the brain; fluorescence in brain tissue [2, 3]: no fluorescence was measured in brain tissue; time to clearance from the blood ([2]; Cy5.5 labeled, intravenous 10 mg/kg, measured until day 24): ≤ 12 days; bioluminescence of U87MG-Luc brain tumor cells (U87MG-Luc 2 glioblastoma): many brain tumor cells survived

B3: complex of CGGGG-SEQ ID NO: 41 peptide for penetrating the blood-brain barrier and SEQ ID NO: 59 antibody: SEQ ID NO: 41 peptide with N-terminal linker CGGGG chemically conjugated to antibody of SEQ … (conjugate)
chain 1: VSRRRRRRGGRRRRHAIYPRH
chain 2: B1 chain 2
modifications: N-terminal CGGGG linker; chemical conjugation
Q: For B3, which “fluorescence in brain tissue, % of the initial dose” value ([2]; 4 days after intravenous injection, 10 mg/kg) is on record?
A: approximately 7%

Q: What about the “blood levels compared with the antibody linked to TAT” value [2, 3] of the same molecule?
A: higher

Q: And the “bioluminescence of U87MG-Luc brain tumor cells” value (U87MG-Luc 2 glioblastoma)?
A: the bioluminescence caused by brain tumor cells decreased

Q: What about the “distribution of fluorescence in the brain (confocal, frozen sections)” value (U87MG-Luc 2 glioblastoma; cy5.5 labeled, administered 8 hours before sacrifice, FIG. 6(c)) of the same molecule?
A: distributed in the area where the brain tumor occurred

Reference: US20240398964A1, “PEPTIDE FOR PENETRATING BLOOD-BRAIN BARRIER AND USE THEREOF” (NIBEC CO., LTD., priority 2021, published 2024)
